Assay results published in the supplement of paper PMC12855868.

B1: library; numbered along this chain (parent)
chain: MAAAGGARLLRAASAVLGGPAGRWLHHAGSRAGSSGLLRNRGPGGSAEASRSLSVSARARSSSEDKITVHFINRDGETLTTKGKVGDSLLDVVVENNLDIDGFGACEGTLACSTCHLIFEDHIYEKLDAITDEENDMLDLAYGLTDRSRLGCQICLTKSMDNMTVRVPETVADARQSIDVGKTS

Variants of: B1
Test: scaled log2 fold change in cell abundance, elesclomol vs control (0 = silent mean, 1 = nonsense mean) (scaled log2 ratio); higher = higher viability under elesclomol (loss of FDX1 cuproptosis function)
Conditions: glucose 10 mM
[1] = with ABC1 FDX1 KO, elesclomol 5 nM, 14 days
[2] = with HEK293T FDX1 KO, elesclomol 40 nM, 11 days
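Also: variant abundance is its share of total variant reads in each endpoint sample, from next-generation sequencing of the integrated ORF PCR-amplified out of genomic DNA.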

Row | Variant | scaled log2 fold change [1] | scaled log2 fold change [2]
1 | E133H | -0.148 | -0.764
2 | E133T | 0.0196 | 0.842
3 | E133R | 0.274 | 0.00388
4 | E133Y | -0.281 | 0.898
5 | E133D | 0.319 | 0.453
6 | E133C | 0.215 | -0.346
7 | E133A | -0.216 | 1.27
8 | E133L | -0.204 | 0.0198
9 | E133I | 0.458 | -0.339
10 | E133V | 0.153 | -0.0517
11 | E133M | -0.152 | -0.547
12 | E133G | -0.151 | -0.168
13 | E133K | 0.105 | 0.342
14 | E133W | -1.03 | 0.0959
15 | E133P | -0.087 | 0.243
16 | D132Y | 0.176 | 1.12
17 | D132P | -0.221 | -0.681
18 | D132L | 0.217 | -0.447
19 | D132V | 0.152 | -0.737
20 | D132N | -0.0637 | –
21 | D132T | -0.0728 | -0.282
22 | D132Q | 0.014 | 0.0254
23 | D132E | 0.299 | 0.371
24 | D132K | -0.0835 | 0.943

Row | Variant | scaled log2 fold change [1] | scaled log2 fold change [2]
25 | D132I | -0.789 | –
26 | D132F | -0.0218 | -0.336
27 | D132H | 0.104 | -1.46
28 | D132G | -0.0468 | 0.9
29 | D132C | -0.0894 | -0.0904
30 | D132M | -0.07 | -0.451
31 | D132R | -0.373 | -0.177
32 | D132A | -0.35 | -0.0723
33 | D132W | -0.0682 | -0.335
34 | D132S | -0.409 | 1.12
35 | A129P | 0.272 | 0.0261
36 | A129H | -0.541 | –
37 | A129K | -0.557 | -0.17
38 | A129V | 0.217 | 0.196
39 | A129I | 0.162 | -0.508
40 | A129W | -0.08 | 1.07
41 | A129Y | -0.538 | –
42 | A129L | 0.598 | 1.27
43 | A129S | 0.0531 | -0.075
44 | A129M | -0.0116 | –
45 | A129R | 0.464 | -0.0758
46 | E134A | 0.628 | 0.137
47 | E134S | 0.926 | 0.571
48 | E134H | 0.345 | 0.225

Row | Variant | scaled log2 fold change [1] | scaled log2 fold change [2]
49 | E134G | 1.21 | 0.684
50 | E134D | 0.911 | 1.21
51 | E134P | 1.22 | 1.01
52 | E134Q | 0.525 | -0.44
53 | E134F | 1.23 | 1.01
54 | E134Y | 0.977 | 2.18
55 | E134R | 1.23 | 1.26
56 | E134T | 1.02 | 0.834
57 | E134N | 1.16 | 0.994
58 | E134C | 0.676 | 1.13
59 | E134K | 1.1 | 1.28
60 | E134V | 0.638 | 0.419
61 | E134L | 1.1 | 1.21
62 | E134I | 1.03 | 0.865
63 | E134M | 0.946 | 0.587
64 | E134W | 1.07 | 1.32
65 | N135Y | 0.0894 | 0.75
66 | N135D | 0.117 | 0.905
67 | N135Q | 0.215 | -0.339
68 | N135T | -0.162 | -0.382
69 | N135A | -0.0811 | -0.437
70 | N135W | -0.118 | 0.554
71 | N135R | -0.532 | 1.02
72 | N135S | 0.055 | -0.262

Row | Variant | scaled log2 fold change [1] | scaled log2 fold change [2]
73 | N135E | -0.00674 | 0.0823
74 | N135G | 0.0707 | -0.645
75 | N135P | 0.887 | 0.821
76 | N135F | 0.44 | -0.599
77 | N135L | 0.151 | 0.661
78 | N135V | 0.161 | 0.0375
79 | N135C | 0.138 | –
80 | N135I | -0.261 | 0.197
81 | N135K | -0.148 | -0.129
82 | N135M | -0.00864 | -0.104
83 | L140C | -0.0723 | -0.467
84 | L140W | -0.629 | 0.639
85 | L140M | 0.393 | 0.793
86 | L140N | 0.179 | –
87 | L140F | -0.344 | 0.78
88 | L140Q | 0.178 | -1.41
89 | L140A | -0.069 | -1.25
90 | L140G | -0.344 | 0.395
91 | L140E | 0.271 | –
92 | L140I | -0.0613 | 0.225
93 | L140D | -0.319 | -0.308
94 | L140P | 0.264 | 0.879
95 | L140K | -0.153 | -0.169
96 | L140T | -0.682 | -0.194

Row | Variant | scaled log2 fold change [1] | scaled log2 fold change [2]
97 | L140H | -1.29 | 0.795
98 | L140S | -0.172 | –
99 | L140R | -0.341 | -0.397
100 | L140Y | -0.351 | -0.373
101 | L140V | -0.00688 | 0.753
102 | D139L | 0.0653 | -0.608
103 | D139I | -0.652 | 0.722
104 | D139Q | -0.0276 | 0.00203
105 | D139H | -0.062 | -0.315
106 | D139G | -0.228 | -0.268
107 | D139C | -0.416 | -0.576
108 | D139E | 0.147 | 0.513
109 | D139T | -0.31 | -0.694
110 | D139S | -0.201 | -1.37
111 | D139A | 0.113 | -0.357
112 | D139K | 0.896 | 0.86
113 | D139P | -0.0434 | -0.395
114 | D139R | 0.938 | 1.09
115 | D139M | 0.045 | 0.155
116 | D139V | 0.0114 | –
117 | D139N | -0.132 | –
118 | D139F | 0.257 | 0.819
119 | D139Y | -0.145 | 0.0051
120 | D139W | 0.0888 | -0.429
